# Data taken from patent publication US7157224B2, “Screening and use of agents which block or activate intein splicing utilizing natural or homologous exteins” (priority 1992, dated 2007).
# Biological target: T1, Mtu DnaB intein (IVPS) (Mycobacterium tuberculosis, UniProt P9WMR3)
# T1 sequence (P9WMR3 whole entry, looked up): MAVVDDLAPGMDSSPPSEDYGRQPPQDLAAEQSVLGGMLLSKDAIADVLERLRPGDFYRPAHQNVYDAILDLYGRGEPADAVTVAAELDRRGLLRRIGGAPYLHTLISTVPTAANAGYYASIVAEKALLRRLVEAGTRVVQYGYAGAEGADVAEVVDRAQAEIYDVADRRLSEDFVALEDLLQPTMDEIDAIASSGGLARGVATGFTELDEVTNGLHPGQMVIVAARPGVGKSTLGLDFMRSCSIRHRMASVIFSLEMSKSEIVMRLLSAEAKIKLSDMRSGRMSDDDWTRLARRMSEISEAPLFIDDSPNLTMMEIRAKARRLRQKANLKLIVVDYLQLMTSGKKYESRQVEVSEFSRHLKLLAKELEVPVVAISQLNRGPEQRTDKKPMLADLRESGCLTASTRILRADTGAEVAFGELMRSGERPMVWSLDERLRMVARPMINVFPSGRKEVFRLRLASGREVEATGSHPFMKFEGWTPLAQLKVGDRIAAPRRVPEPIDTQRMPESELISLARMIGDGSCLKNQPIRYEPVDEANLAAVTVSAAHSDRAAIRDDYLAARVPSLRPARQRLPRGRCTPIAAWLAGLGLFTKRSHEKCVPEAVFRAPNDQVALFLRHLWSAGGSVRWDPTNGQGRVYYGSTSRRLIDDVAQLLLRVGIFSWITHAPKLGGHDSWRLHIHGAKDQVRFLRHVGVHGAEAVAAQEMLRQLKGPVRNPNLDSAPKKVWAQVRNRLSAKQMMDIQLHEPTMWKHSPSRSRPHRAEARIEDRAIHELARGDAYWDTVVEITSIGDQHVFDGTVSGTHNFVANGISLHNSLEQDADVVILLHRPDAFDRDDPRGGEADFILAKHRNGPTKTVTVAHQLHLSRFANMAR
# Type: cell-based
# Details: E. coli, peptide in chicken α-spectrin loop on pEA825 (wild type Mtu dnaB), 37° C., 1 mM IPTG for 3 hours, crude cell extracts, anti-T7 tag immuno-staining
row,Substance,protein splicing of the Mtu DnaB intein (detection of Mtu DnaB protein splicing products)
1,RPAPRPL [pEA815],selected for inhibition of splicing
2,"DLPMVEE [pEA818rev, reference compound]",occurred as efficiently as with the pMtu DnaB clone
3,HPNPHPTLSGQR [pEA818],selected for inhibition of splicing
4,TVQSTKR [pEA814],selected for inhibition of splicing
5,PTRPTAPPLNFS [pEA817],selected for inhibition of splicing
6,PTARTYE [pEA816],selected for inhibition of splicing
